According to patent publication US20260193638A1:

T1: recombinant wild-type Thermus thermophilus SlyD (His6 tagged control) (Thermus thermophilus)
T1 sequence: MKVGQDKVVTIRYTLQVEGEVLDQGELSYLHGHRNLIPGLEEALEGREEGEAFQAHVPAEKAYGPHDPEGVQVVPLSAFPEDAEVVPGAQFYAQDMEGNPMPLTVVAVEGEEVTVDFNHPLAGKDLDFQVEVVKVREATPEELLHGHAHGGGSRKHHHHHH

T2: Thermus thermophilus SlyD-IGF-1 (74-90) chimeric polypeptide
T2 sequence: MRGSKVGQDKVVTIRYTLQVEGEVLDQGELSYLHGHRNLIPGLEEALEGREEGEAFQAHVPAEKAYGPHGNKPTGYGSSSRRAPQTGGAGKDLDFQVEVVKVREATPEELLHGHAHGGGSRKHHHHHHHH

B1: monoclonal antibody M-10.7.9 (antibody, from a related filing, V domains shown)
VH: QVQLQQSGAELVRPGSSVKISCKASGYAFSSYWMNWVKQRPGQGLEWIGQIYPGDGDTNHNGKFKGKATLTADKSSSTVYMQLSSLTSEDSAVYFCARSGDYYGKDYWGQGTTLTVSS
VL: DIVLTQTPPSLPVNMGQKATISYKATKSLLNTDGYTYMHWNQQKPGQPPKLLIYLVSNRESGVPDRFSGSGSGTDFTLNINTVEEEDAATYYCHHSNELPHTFGAGTKLEIK
B2: monoclonal antibody M-11.11.17 (antibody, from a related filing, V domains shown)
VH: QVQLQQSGAELVRPGSSVKISCKASGYAFSNLWMNWVKQRPGQGLEWIGQIYPGDGDTNYYGDFKGKATLTADSSSSTAYMQLSRLTSEDSAVYFCARIGYYGMDYWGQGTSVTVSS
VL: DVVLTQTPLSLPVNIGDEASISCKSTKSLLSSDGLTYLDWYLQKPGQSPQVLIYLVSNRFSGVPDRFSGSGSGTDFTLKISRVEAEDLGVYYCFQSNYLPTFGAGTKLELK

Key:
[1] = target: recombinant native human IGF-1 (human) (UniProt P05019); assay: SPR at 37 °C, antibody captured, analyte in solution
[2] = target: T1, recombinant wild-type Thermus thermophilus SlyD (His6 tagged control) (Thermus thermophilus); assay: ELISA, undiluted culture supernatant
[3] = target: T2, Thermus thermophilus SlyD-IGF-1 (74-90) chimeric polypeptide; assay: ELISA, undiluted culture supernatant
[4] = target: recombinant native human IGF-1 (human) (UniProt P05019); assay: ELISA, undiluted culture supernatant
[5] = target: T2, Thermus thermophilus SlyD-IGF-1 (74-90) chimeric polypeptide; assay: SPR at 37 °C, antibody captured, analyte in solution
[6] = target: recombinant native human IGF-1 (human) (UniProt P05019); assay: as above; remark: listed apart in the source
[7] = target: T2, Thermus thermophilus SlyD-IGF-1 (74-90) chimeric polypeptide; assay: SPR at 25 °C, antibody captured, antigen in solution
[8] = target: recombinant native human IGF-1 (human) (UniProt P05019); assay: as above

| Ka [1] [M⁻¹] | Kd [1] [pM] | koff [1] [s⁻¹] | kon [1] [M⁻¹ s⁻¹] | t/2-diss [1] [min] | reactivity [2] [mE] | reactivity [3] [mE] | reactivity [4] [mE] | koff [5] [s⁻¹] | t/2-diss [5] [min] | koff [6] [s⁻¹] | t/2-diss [6] [min] | Kd [7] [pM] | MR [7] | koff [7] [s⁻¹] | kon [7] [M⁻¹ s⁻¹] | t/2-diss [7] [min] | Kd [8] [pM] | MR [8] | koff [8] [s⁻¹] | further results | Binder |
| --- | --- | --- | --- | --- | --- | --- | --- | --- | --- | --- | --- | --- | --- | --- | --- | --- | --- | --- | --- | --- | --- |
| 2.2e+08 | 4500 | 0.006 | 1.3e+06 | 2 | 36 | 1900 | 2110 | 1e-05 | 1160 | 1e-05 | 1160 | 2400 | 1.8 | 0.00069 | 290000 | 17 | 1600 | 1.7 | 0.0015 | kon [8]: 920000 M⁻¹ s⁻¹; t/2-diss [8]: 8 min | B1 |
| 2.2e+10 | 46 | 0.00014 | 3.1e+06 | 81 | 32 | 2150 | 2430 | 1e-05 | 1160 | 1e-05 | 1160 | 10 | 2 | 1e-05 | 710000 | 1110 | 10 | 2 | 2.1e-05 | kon [8]: 2e+06 M⁻¹ s⁻¹; t/2-diss [8]: 560 min | B2 |
